Data as given in patent US20140148397A1 (University of California, published 2014).
Ends that are not written are not given here.

B1: AgRP-2Q (peptide)
peptide: SSRRCVRLHESCLGQQVPCCDPCATCYCRFFNAFCYCRQLGTAMNPCSQT-NH2
modifications: disulfide (positions not given here)
B2: AgRP-2K (peptide)
peptide: SSRRCVRLHESCLGQQVPCCDPCATCYCRFFNAFCYCRKLKTKMNPCSRT-NH2
modifications: disulfide (positions not given here)
B3: AgRP-4Q (peptide)
peptide: SSQQCVRLHESCLGQQVPCCDPCATCYCRFFNAFCYCRQLGTAMNPCSQT-NH2
modifications: disulfide (positions not given here)
B4: AgRP-4K (peptide)
peptide: KKRRCVRLHESCLGQQVPCCDPCATCYCRFFNAFCYCRKLKTKMNPCSRT-NH2
modifications: disulfide (positions not given here)
B5: AgRP(83-120) (peptide)
peptide: SSRRCVRLHESCLGQQVPCCDPAATCYCRFFNAFCYCR-NH2
modifications: disulfide (positions not given here); not fully specified; also: oxidatively folded, disulfide pairing not given here
B6: AgRP(87-120) (peptide)
peptide: Ac-CVRLHESCLGQQVPCCDPAATCYCRFFNAFCYCR-NH2
modifications: disulfide (positions not given here); not fully specified; also: oxidatively folded, disulfide pairing not given here

These binders were tested against hMC3R (human, UniProt P41968 1-323) (assay: cell-based or functional assay).
hMC3R, sequence (P41968 whole entry): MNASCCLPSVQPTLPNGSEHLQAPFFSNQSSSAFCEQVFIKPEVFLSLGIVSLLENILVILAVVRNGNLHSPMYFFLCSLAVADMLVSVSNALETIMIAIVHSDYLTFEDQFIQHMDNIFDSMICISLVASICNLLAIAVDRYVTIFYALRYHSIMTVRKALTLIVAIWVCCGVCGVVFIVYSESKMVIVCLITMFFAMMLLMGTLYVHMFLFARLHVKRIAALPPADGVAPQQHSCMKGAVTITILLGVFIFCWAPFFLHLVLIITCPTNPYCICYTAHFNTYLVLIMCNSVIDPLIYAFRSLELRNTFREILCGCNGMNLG

First: B1
Second: B2
The “EC50 (nM), NDP-MSH stimulated cAMP production in the presence of 0.10 µM AgRP protein” value (from here on “EC50 (nM)”) of the first is 1.7-fold lower: 9.22 nM for the first, 16.1 nM for the second.

First: B3
Second: B4
The “EC50 (nM)” value of the first is 1.6-fold lower: 1.62 nM for the first, 2.66 nM for the second.

First: B5
Second: B6
The “EC50 (nM)” value of the first is 1.9-fold lower: 2.96 nM for the first, 5.5 nM for the second.

What follows are binders tested against hMC4R (human, UniProt P32245 1-332) (assay: cell-based or functional assay).
hMC4R, sequence (P32245 whole entry): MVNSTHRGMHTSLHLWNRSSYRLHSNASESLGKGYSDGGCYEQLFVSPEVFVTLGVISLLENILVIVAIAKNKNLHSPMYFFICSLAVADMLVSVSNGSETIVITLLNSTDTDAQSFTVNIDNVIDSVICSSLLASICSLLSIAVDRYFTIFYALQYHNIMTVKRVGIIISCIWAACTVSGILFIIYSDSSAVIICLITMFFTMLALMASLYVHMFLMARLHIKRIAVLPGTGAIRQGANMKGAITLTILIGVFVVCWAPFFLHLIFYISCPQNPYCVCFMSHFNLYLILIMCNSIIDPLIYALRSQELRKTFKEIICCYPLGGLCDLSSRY

B1 and B2 are within 1.5-fold of each other in “EC50 (nM)” value: 6.66 nM for the first, 4.54 nM for the second.

B3 and B4 are within 1.5-fold of each other in “EC50 (nM)” value: 1.8 nM for the first, 1.72 nM for the second.

B5 was tested, and the “EC50 (nM)” value was 4.92 nM.
